Laboratory results as given in US20220204580A1 (AstraZeneca / MedImmune, published 2022).
Numbered stars: 1 amine (or outer) side, 2 acyl side, 3 side chain; on linkers, the order of the positions; unused ones are H or OH. Bridge positions count the residues as written; N and C are the ends. Square brackets hold non-standard residues; d marks the D form. Side chains are listed from the residue outwards. Ends that are not written are not given here. * marks the point of attachment. C18 diacid = O=C(O)CCCCCCCCCCCCCCCCC(=O)*; γGlu = O=C(O)[C@H](CCC(=O)[*:2])N[*:1]; Aib = CC(C)(N)C(=O)O

B1: Peptide 136 (SEQ ID NO: 136) (peptide)
peptide: K([γGlu-C18 diacid])KCNTATCATQRLANFL[Aib]HSSNNFGPILPPTNVGSNTP-NH2
modifications: disulfide 3-8; N-terminus assumed
SMILES: CC[C@H](C)[C@H](NC(=O)[C@@H]1CCCN1C(=O)CNC(=O)[C@H](Cc1ccccc1)NC(=O)[C@H](CC(N)=O)NC(=O)[C@H](CC(N)=O)NC(=O)[C@H](CO)NC(=O)[C@H](CO)NC(=O)[C@H](Cc1c[nH]cn1)NC(=O)C(C)(C)NC(=O)[C@H](CC(C)C)NC(=O)[C@H](Cc1ccccc1)NC(=O)[C@H](CC(N)=O)NC(=O)[C@H](C)NC(=O)[C@H](CC(C)C)NC(=O)[C@H](CCCNC(=N)N)NC(=O)[C@H](CCC(N)=O)NC(=O)[C@@H](NC(=O)[C@H](C)NC(=O)[C@@H]1CSSC[C@H](NC(=O)[C@H](CCCCN)NC(=O)[C@@H](N)CCCCNC(=O)CC[C@H](NC(=O)CCCCCCCCCCCCCCCCC(=O)O)C(=O)O)C(=O)N[C@@H](CC(N)=O)C(=O)N[C@@H]([C@@H](C)O)C(=O)N[C@@H](C)C(=O)N[C@@H]([C@@H](C)O)C(=O)N1)[C@@H](C)O)C(=O)N[C@@H](CC(C)C)C(=O)N1CCC[C@H]1C(=O)N1CCC[C@H]1C(=O)N[C@H](C(=O)N[C@@H](CC(N)=O)C(=O)N[C@H](C(=O)NCC(=O)N[C@@H](CO)C(=O)N[C@@H](CC(N)=O)C(=O)N[C@H](C(=O)N1CCC[C@H]1C(N)=O)[C@@H](C)O)C(C)C)[C@@H](C)O
B2: Peptide 138 (SEQ ID NO: 138) (peptide)
peptide: K([γGlu-C18 diacid])KCNTATCATQRLANFL[Aib]HSSPNFGPILPPTEVGSNTY-NH2
modifications: disulfide 3-8; N-terminus assumed
SMILES: CC[C@H](C)[C@H](NC(=O)[C@@H]1CCCN1C(=O)CNC(=O)[C@H](Cc1ccccc1)NC(=O)[C@H](CC(N)=O)NC(=O)[C@@H]1CCCN1C(=O)[C@H](CO)NC(=O)[C@H](CO)NC(=O)[C@H](Cc1c[nH]cn1)NC(=O)C(C)(C)NC(=O)[C@H](CC(C)C)NC(=O)[C@H](Cc1ccccc1)NC(=O)[C@H](CC(N)=O)NC(=O)[C@H](C)NC(=O)[C@H](CC(C)C)NC(=O)[C@H](CCCNC(=N)N)NC(=O)[C@H](CCC(N)=O)NC(=O)[C@@H](NC(=O)[C@H](C)NC(=O)[C@@H]1CSSC[C@H](NC(=O)[C@H](CCCCN)NC(=O)[C@@H](N)CCCCNC(=O)CC[C@H](NC(=O)CCCCCCCCCCCCCCCCC(=O)O)C(=O)O)C(=O)N[C@@H](CC(N)=O)C(=O)N[C@@H]([C@@H](C)O)C(=O)N[C@@H](C)C(=O)N[C@@H]([C@@H](C)O)C(=O)N1)[C@@H](C)O)C(=O)N[C@@H](CC(C)C)C(=O)N1CCC[C@H]1C(=O)N1CCC[C@H]1C(=O)N[C@H](C(=O)N[C@@H](CCC(=O)O)C(=O)N[C@H](C(=O)NCC(=O)N[C@@H](CO)C(=O)N[C@@H](CC(N)=O)C(=O)N[C@H](C(=O)N[C@@H](Cc1ccc(O)cc1)C(N)=O)[C@@H](C)O)C(C)C)[C@@H](C)O
B3: Peptide 137 (SEQ ID NO: 137) (peptide)
peptide: K([γGlu-C18 diacid])KCNTATCATQRLANFL[Aib]HSSRNFGPILPPTNVGSNTY-NH2
modifications: disulfide 3-8; N-terminus assumed
SMILES: CC[C@H](C)[C@H](NC(=O)[C@@H]1CCCN1C(=O)CNC(=O)[C@H](Cc1ccccc1)NC(=O)[C@H](CC(N)=O)NC(=O)[C@H](CCCNC(=N)N)NC(=O)[C@H](CO)NC(=O)[C@H](CO)NC(=O)[C@H](Cc1c[nH]cn1)NC(=O)C(C)(C)NC(=O)[C@H](CC(C)C)NC(=O)[C@H](Cc1ccccc1)NC(=O)[C@H](CC(N)=O)NC(=O)[C@H](C)NC(=O)[C@H](CC(C)C)NC(=O)[C@H](CCCNC(=N)N)NC(=O)[C@H](CCC(N)=O)NC(=O)[C@@H](NC(=O)[C@H](C)NC(=O)[C@@H]1CSSC[C@H](NC(=O)[C@H](CCCCN)NC(=O)[C@@H](N)CCCCNC(=O)CC[C@H](NC(=O)CCCCCCCCCCCCCCCCC(=O)O)C(=O)O)C(=O)N[C@@H](CC(N)=O)C(=O)N[C@@H]([C@@H](C)O)C(=O)N[C@@H](C)C(=O)N[C@@H]([C@@H](C)O)C(=O)N1)[C@@H](C)O)C(=O)N[C@@H](CC(C)C)C(=O)N1CCC[C@H]1C(=O)N1CCC[C@H]1C(=O)N[C@H](C(=O)N[C@@H](CC(N)=O)C(=O)N[C@H](C(=O)NCC(=O)N[C@@H](CO)C(=O)N[C@@H](CC(N)=O)C(=O)N[C@H](C(=O)N[C@@H](Cc1ccc(O)cc1)C(N)=O)[C@@H](C)O)C(C)C)[C@@H](C)O
B4: Peptide 135 (SEQ ID NO: 135) (peptide)
peptide: K([γGlu-C18 diacid])KCNTATCATQRLANFL[Aib]HSSNHFGPILPPTNVGSNTY-NH2
modifications: disulfide 3-8; N-terminus assumed
SMILES: CC[C@H](C)[C@H](NC(=O)[C@@H]1CCCN1C(=O)CNC(=O)[C@H](Cc1ccccc1)NC(=O)[C@H](Cc1c[nH]cn1)NC(=O)[C@H](CC(N)=O)NC(=O)[C@H](CO)NC(=O)[C@H](CO)NC(=O)[C@H](Cc1c[nH]cn1)NC(=O)C(C)(C)NC(=O)[C@H](CC(C)C)NC(=O)[C@H](Cc1ccccc1)NC(=O)[C@H](CC(N)=O)NC(=O)[C@H](C)NC(=O)[C@H](CC(C)C)NC(=O)[C@H](CCCNC(=N)N)NC(=O)[C@H](CCC(N)=O)NC(=O)[C@@H](NC(=O)[C@H](C)NC(=O)[C@@H]1CSSC[C@H](NC(=O)[C@H](CCCCN)NC(=O)[C@@H](N)CCCCNC(=O)CC[C@H](NC(=O)CCCCCCCCCCCCCCCCC(=O)O)C(=O)O)C(=O)N[C@@H](CC(N)=O)C(=O)N[C@@H]([C@@H](C)O)C(=O)N[C@@H](C)C(=O)N[C@@H]([C@@H](C)O)C(=O)N1)[C@@H](C)O)C(=O)N[C@@H](CC(C)C)C(=O)N1CCC[C@H]1C(=O)N1CCC[C@H]1C(=O)N[C@H](C(=O)N[C@@H](CC(N)=O)C(=O)N[C@H](C(=O)NCC(=O)N[C@@H](CO)C(=O)N[C@@H](CC(N)=O)C(=O)N[C@H](C(=O)N[C@@H](Cc1ccc(O)cc1)C(N)=O)[C@@H](C)O)C(C)C)[C@@H](C)O
B5: Peptide 134 (SEQ ID NO: 134) (peptide)
peptide: K([γGlu-C18 diacid])KCNTATCATQRLANFL[Aib]HSSNNFGPILPPTPVGSNTY-NH2
modifications: disulfide 3-8; N-terminus assumed
SMILES: CC[C@H](C)[C@H](NC(=O)[C@@H]1CCCN1C(=O)CNC(=O)[C@H](Cc1ccccc1)NC(=O)[C@H](CC(N)=O)NC(=O)[C@H](CC(N)=O)NC(=O)[C@H](CO)NC(=O)[C@H](CO)NC(=O)[C@H](Cc1c[nH]cn1)NC(=O)C(C)(C)NC(=O)[C@H](CC(C)C)NC(=O)[C@H](Cc1ccccc1)NC(=O)[C@H](CC(N)=O)NC(=O)[C@H](C)NC(=O)[C@H](CC(C)C)NC(=O)[C@H](CCCNC(=N)N)NC(=O)[C@H](CCC(N)=O)NC(=O)[C@@H](NC(=O)[C@H](C)NC(=O)[C@@H]1CSSC[C@H](NC(=O)[C@H](CCCCN)NC(=O)[C@@H](N)CCCCNC(=O)CC[C@H](NC(=O)CCCCCCCCCCCCCCCCC(=O)O)C(=O)O)C(=O)N[C@@H](CC(N)=O)C(=O)N[C@@H]([C@@H](C)O)C(=O)N[C@@H](C)C(=O)N[C@@H]([C@@H](C)O)C(=O)N1)[C@@H](C)O)C(=O)N[C@@H](CC(C)C)C(=O)N1CCC[C@H]1C(=O)N1CCC[C@H]1C(=O)N[C@H](C(=O)N1CCC[C@H]1C(=O)N[C@H](C(=O)NCC(=O)N[C@@H](CO)C(=O)N[C@@H](CC(N)=O)C(=O)N[C@H](C(=O)N[C@@H](Cc1ccc(O)cc1)C(N)=O)[C@@H](C)O)C(C)C)[C@@H](C)O
B6: Peptide 139 (SEQ ID NO: 139) (peptide)
peptide: K([γGlu-C18 diacid])KCNTATCATQRLANFL[Aib]HSSPNFGPILPPTNVGSETY-NH2
modifications: disulfide 3-8; N-terminus assumed
SMILES: CC[C@H](C)[C@H](NC(=O)[C@@H]1CCCN1C(=O)CNC(=O)[C@H](Cc1ccccc1)NC(=O)[C@H](CC(N)=O)NC(=O)[C@@H]1CCCN1C(=O)[C@H](CO)NC(=O)[C@H](CO)NC(=O)[C@H](Cc1c[nH]cn1)NC(=O)C(C)(C)NC(=O)[C@H](CC(C)C)NC(=O)[C@H](Cc1ccccc1)NC(=O)[C@H](CC(N)=O)NC(=O)[C@H](C)NC(=O)[C@H](CC(C)C)NC(=O)[C@H](CCCNC(=N)N)NC(=O)[C@H](CCC(N)=O)NC(=O)[C@@H](NC(=O)[C@H](C)NC(=O)[C@@H]1CSSC[C@H](NC(=O)[C@H](CCCCN)NC(=O)[C@@H](N)CCCCNC(=O)CC[C@H](NC(=O)CCCCCCCCCCCCCCCCC(=O)O)C(=O)O)C(=O)N[C@@H](CC(N)=O)C(=O)N[C@@H]([C@@H](C)O)C(=O)N[C@@H](C)C(=O)N[C@@H]([C@@H](C)O)C(=O)N1)[C@@H](C)O)C(=O)N[C@@H](CC(C)C)C(=O)N1CCC[C@H]1C(=O)N1CCC[C@H]1C(=O)N[C@H](C(=O)N[C@@H](CC(N)=O)C(=O)N[C@H](C(=O)NCC(=O)N[C@@H](CO)C(=O)N[C@@H](CCC(=O)O)C(=O)N[C@H](C(=O)N[C@@H](Cc1ccc(O)cc1)C(N)=O)[C@@H](C)O)C(C)C)[C@@H](C)O

Assays:
[1] = biological target: T1, human calcitonin receptor (human, UniProt P30988 25-474); assay: cell-based or functional assay
T1 sequence (looked up): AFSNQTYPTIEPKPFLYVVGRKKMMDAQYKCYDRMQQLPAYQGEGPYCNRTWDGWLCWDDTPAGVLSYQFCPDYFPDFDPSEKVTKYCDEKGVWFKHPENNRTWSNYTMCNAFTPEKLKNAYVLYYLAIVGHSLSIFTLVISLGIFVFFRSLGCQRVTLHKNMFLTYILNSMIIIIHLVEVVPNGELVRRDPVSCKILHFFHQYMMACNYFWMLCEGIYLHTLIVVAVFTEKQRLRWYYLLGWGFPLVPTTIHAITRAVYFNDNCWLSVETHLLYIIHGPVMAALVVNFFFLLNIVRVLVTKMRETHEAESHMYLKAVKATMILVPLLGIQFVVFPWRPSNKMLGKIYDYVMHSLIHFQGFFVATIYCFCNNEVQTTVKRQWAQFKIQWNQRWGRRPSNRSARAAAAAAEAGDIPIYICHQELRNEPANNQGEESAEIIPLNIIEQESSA

[2] = biological target: T2, human amylin receptor (calcitonin receptor co-expressed with receptor activity modifying protein, RAMP3) (human, UniProt P30988 25-474; O60896 24-148); assay: cell-based or functional assay
T2 sequence (looked up) 1: T1 sequence (looked up)
T2 sequence (looked up) 2: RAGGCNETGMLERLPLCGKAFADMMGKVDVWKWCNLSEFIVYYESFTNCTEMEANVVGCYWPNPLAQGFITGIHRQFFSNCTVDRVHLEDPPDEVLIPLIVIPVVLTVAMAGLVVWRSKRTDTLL

Row | Binder | EC50 (cAMP production) [1] | EC50 (cAMP production) [2] | Ratio (EC50 hCTR / EC50 hAMYR3) [2]
1 | B1 | 101 pM | 122 pM | 0.8
2 | B2 | 2510 pM | 612 pM | 4.1
3 | B3 | 1500 pM | 238 pM | 6.3
4 | B4 | 345 pM | 296 pM | 1.2
5 | B5 | 2220 pM | 281 pM | 7.9
6 | B6 | 1040 pM | 285 pM | 3.7
